# Data taken from patent publication US20090280138A1 (OXFORD BIOMEDICA UK, published 2009).
# Tests used:
# Assay in all cases: iTopia, multiparametric iScore
# [1] = target: T1, MHC class I allele B*0702 monomer (human, biotinylated, bound to streptavidin-coated plate)
# T1 construct: also called B7; HLA-B7
# Protocol: (§1) The 9 mers were tested for Peptide Binding, Off Rate and Affinity using iTopia Epitope Discovery System in accordance with the manufacturer's instructions. Briefly, 96 well microtitre plates coated with MHC molecules representing different MHC alleles are used to identify candidate peptides. […] Determinations are performed in duplicate using an ELISA plate reader and included allele specific positive controls.
# (§2) Finally, multiparametric analysis is performed on the results from these assays and an iScore is generated. The iScore represents a measure of the overall quality of peptide-MHC binding, enabling candidate peptides to be ranked in order of binding quality and allowing rational prioritisation of peptides for functional cellular follow-up studies.
# [2] = target: T2, MHC class I allele A*0201 monomer (human, biotinylated, bound to streptavidin-coated plate)
# T2 construct: also called A2; HLA-A2
# Protocol: as §1, §2
# [3] = target: T3, MHC class I allele A*0301 monomer (human, biotinylated, bound to streptavidin-coated plate)
# T3 construct: also called A3; HLA-A3
# Protocol: as §1, §2
# [4] = target: T4, MHC class I allele A*0101 monomer (human, biotinylated, bound to streptavidin-coated plate)
# T4 construct: placeholder peptide and b2M removed, then reconstituted with test peptide and fresh b2M; also called A1; HLA-A1
# Protocol: as §1, §2
Binder,iScore [1],iScore [2],iScore [3],iScore [4]
TLAELQGLP [5T4 9-mer peptide 139],0,0.083,0,0
AELQGLPHI [5T4 9-mer peptide 140],0,0,0,0
LQGLPHIRV [5T4 9-mer peptide 141],0,0.2,0,0
PHIRVFLDN [5T4 9-mer peptide 143],0,0,0,0
IRVFLDNNP [5T4 9-mer peptide 144],0,0,0,0
VFLDNNPWV [5T4 9-mer peptide 145],0,0.239,0,0
LDNNPWVCD [5T4 9-mer peptide 146],0,0,0,0
NNPWVCDCH [5T4 9-mer peptide 147],0,0,0.051,0
PWVCDCHMA [5T4 9-mer peptide 148],0,0,0,0
VCDCHMADM [5T4 9-mer peptide 149],0,0.061,0,0
DCHMADMVT [5T4 9-mer peptide 150],0,0,0,0
ADMVTWLKE [5T4 9-mer peptide 152],0,0,0,0
MVTWLKETE [5T4 9-mer peptide 153],0,0.051,0,0
TWLKETEVV [5T4 9-mer peptide 154],0,0.184,0,0
LKETEVVQG [5T4 9-mer peptide 155],0,0,0,0
ETEVVQGKD [5T4 9-mer peptide 156],0,0,0,0
EVVQGKDRL [5T4 9-mer peptide 157],0,0.139,0,0
VQGKDRLTC [5T4 9-mer peptide 158],0,0.074,0,0

Binder,iScore [1],iScore [2],iScore [3],iScore [4]
GKDRLTCAY [5T4 9-mer peptide 159],0,0,0,0
DRLTCAYPE [5T4 9-mer peptide 160],0,0,0,0
CAYPEKMRN [5T4 9-mer peptide 162],0,0,0,0
EKMRNRVLL [5T4 9-mer peptide 164],0,0.096,0,0
MRNRVLLEL [5T4 9-mer peptide 165],0,0,0,0
NRVLLELNS [5T4 9-mer peptide 166],0,0.031,0,0
VLLELNSAD [5T4 9-mer peptide 167],0,0.105,0,0
LELNSADLD [5T4 9-mer peptide 168],0,0,0,0
LNSADLDCD [5T4 9-mer peptide 169],0,0,0,0
SADLDCDPI [5T4 9-mer peptide 170],0,0,0,0
DLDCDPILP [5T4 9-mer peptide 171],0,0,0,0
DCDPILPPS [5T4 9-mer peptide 172],0,0,0,0
DPILPPSLQ [5T4 9-mer peptide 173],0,0,0,0
PPSLQTSYV [5T4 9-mer peptide 175],0,0.145,0,0
QTSYVFLGI [5T4 9-mer peptide 177],0,0.127,0,0.027
SYVFLGIVL [5T4 9-mer peptide 178],0.045,0.118,0,0
LGIVLALIG [5T4 9-mer peptide 180],0,0,0,0
GAIFLLVLY [5T4 9-mer peptide 184],0,0,0,0
